Experiments:
[1] = target: T1, Eotaxin 2 (CCL24), human (human, UniProt O00175 27-119); experiment: cell-based or functional assay
T1 sequence: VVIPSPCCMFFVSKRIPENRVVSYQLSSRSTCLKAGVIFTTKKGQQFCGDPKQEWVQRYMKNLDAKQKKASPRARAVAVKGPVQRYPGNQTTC

[2] = target: Eotaxin 1 (CCL11), human (human, UniProt P51671 24-97); experiment: cell-based or functional assay
[3] = target: T2, RANTES (CCL5), human (human, UniProt P13501 24-91); experiment: cell-based or functional assay
T2 sequence: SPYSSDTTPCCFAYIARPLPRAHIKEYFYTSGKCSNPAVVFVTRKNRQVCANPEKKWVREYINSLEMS

[4] = target: T1, Eotaxin 2 (CCL24), human; experiment: Biacore SPR (eotaxin 2 immobilised on CM-5 chip) and ELISA
Procedure: The affinity constant of hCM101 or murine CM101 was evaluated using Biacore T100. This method uses Surface Plasmon Resonance (SPR) electrooptical phenomenon to measure the binding constants and on/off rates between binding partners. Eotaxin 2 was covalently immobilized on a surface of a CM-5 chip, and a solution of CM101 was passed over the surface. The changes in SPR angle were measured and enabled to determine the KD.

Chain of Eotaxin 1 (CCL11), human (P51671 24-97): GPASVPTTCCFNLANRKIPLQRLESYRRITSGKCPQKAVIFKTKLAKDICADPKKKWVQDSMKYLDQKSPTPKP

B1: hCM101 (fully humanized anti-eotaxin-2 monoclonal antibody, humanized variant VH1/VK3) (antibody, human IgG1, V domains shown)
VH: QIQLVQSGPELKKPGASVKVSCRASGYPFTNSGMNWVKQAPGKGLKWMGWINTYNGEPTYTDDFKGRFAFSLETSASTAYLQINNLRNEDTATYFCASHSYGSSYAMDNWGQGTSVTVSS
VL: DIVLTQSPDSLAVSLGERATINCKASQSVDYDGDSYMNWYQQKPGQPPKLLIYVASNLKSGIPARFSGSGSGTDFTLTISSLQPEDFATYYCQQSNEEPWTFGGGTKVEIK
notes: also called VH1/K3; fully humanized CM101
- migration of CD14 negative cells towards Eotaxin 1, 2 and Rantes, % reduction at the high dose [1]: ~90%
- migration of CD14 negative cells towards Eotaxin 1, 2 and Rantes, % reduction at the high dose [2]: ~90%
- migration of CD14 negative cells towards Eotaxin 1, 2 and Rantes, % reduction at the high dose [3]: ~90%
- Kd [4]: 3 nM

Reference: US20160368979A1 (CHEMOMAB, published 2016)
